Experimental data: patent US20120207760A1 (THERACLONE SCIENCES, published 2012)

These binders were tested against Hemagglutinin of influenza A/Solomon Islands/3/06 (H1N1), on inactivated whole virions (Influenza A virus A/Solomon …) (assay: ELISA, B cell culture supernatant on inactivated whole virions).

Binder | OD450 [OD450]
TCN-521 (3280_D18) (antibody, V domains shown) VH: EVQLVQSGGGLVQPGGSLRLACVVSGFTVTSNYITWVRQAPGKGLEWVSVIYSHGRAYYSASVNGRFTISRHTSKNTVYLEMNSLRPEDTAVYYCAGGGLVGGYDEYFFDYWGQGTLATVSS VL: ETVLTQSPGTLSLTPGERATLSCRVGQSVSGSHLAWYQQKPGQAPRLLIYGASSRATGIPDRFGGSVSGTDFTLTISRLEPEDSAVYYCQQYGDSRYTFGQGTKLEIK | 3.7
TCN-523 (5248_A17) (antibody, V domains shown) VH: QVQLVQSGAEVKKPGSSVKVSCKASGGSFSNYAFSWVRQAPGQGLEWMGGTIPLLGTTNYAQKFQGRVTISADQFTSTAYMELGSLRSEDTAVYYCTRRKMTTAFDSWGQGTLVTVSS VL: QPVLTQPPSASASLGASVTLTCTLSSAYSNYKVDWYQQRPGKGPRFVMRVGTGGIVGSKGDGIPDRFSVLGSGLNRYLTIKNIQEEDESDYHCGADHGSGSNFVSPYVFGGGTKLTVL | 3.47
TCN-563 (5237_B21) (antibody, V domains shown) VH: QVQLAQSGAEVKRPGSSVKVSCTASGGIFRKNAISWVRQAPGQGLEWMGGIIAVFNTANYAQKFQGRVKITADESGNTAYMELSSLRSDDTAVYYCASHPKYFYGSGSYPDFWGQGTLVTVSS VL: QSALTQPRSVSGSPGQSVTISCTGSSSDVGASNSVSWYQQHPGKAPKLVIYDVTERPSGVPHRFSGSKSGNTASLTVSGLQPEDEADYFCCAYGGKYLVVFGGGTKVTVL | 3.62
TCN-526 (5084_C17) (antibody, V domains shown) VH: EVLMVESGGGLVQPGGSVRLSCVASGFSFSSHWMTWVRQAPGKGLEWVANIEDDGGDKYYVDSVKGRFIISRDNAKNSVYLQMNSLRAEDTAVYFCARGSGSSDRSDYDPHYYYYLDVWGKGATVTVSS VL: DIQLTQSPSSLSASVGDRVTITCRASQSISRYLNWYQQKPGKAPKLLLFAASTLLDGVPSRFSGSGSGTDFTLTISSLQPEDFATYYCQRNHSPSWTFGQGTRVEIK | 0.06
TCN-527 (5086_C06) (antibody, V domains shown) VH: QVQLQESGPGLVKPSETLSLNCAVSGGSISNYYWSWIRQPPGKGLEWIGYISYNGRPKYNPSLTSRVTISVDTSKDQFSLELRSVTAADTALYYCARETRFGELLSPYDAFEIWGQGTMVTVSS VL: DIQMTQSPSSLSASVGDRVTMTCRASQNIRSYLNWYQQRPGTAPKLLIYAASTLHSGVPSRFSGGGSGTDFTLTINNLQPEDFASYYCQQSYDNPQTFGQGTKVEIK | 3.03
TCN-528 (5087_P17) (antibody, V domains shown) VH: QVQLVQSGSEVKKPGASVKVSCKASGYTFTNYDINWIRQAPGQGLEWMGWINPNSGTTGSAQRFQGRVTITVDTSITTVYMELSSLRSDDTAIYYCARGRELLRLQHFLTDSQSERRDCFDPWGQGTLVTVSS VL: DIQMTQSPSSLSASVGDRVTITCRANQDIGIYLNWYQQNPGKVPKLLLHGASSLQGGVPSRFSASGSGTDFTLTIHSLQPEDLATYYCQQSRRLPYTFGQGTRVELK | 3.62
TCN-530 (5248_H10a) (antibody, V domains shown) VH: QVQLVQSGAEVRKPGSSVKVSCKASGGPFMSYAIGWVRQAPGQGLEWMGGINPVFGRPHYAQKFQGRVTIATDDSTKTSYMELSSLTSEDTGMYYCASRYSRSSPGTFESWGQGTLVTVSS VL: EIVMTQFPATLSVSPGERVTLSCRASQSVSNNLAWYQQKPGQPPRLLIYDASTRATGVPAKFSGTGSGTEFTLSISSLQSEDFAVYYCQQYHNWPPSYSFGLGTKLEIK | 3.52
TCN-531 (5091_H13) (antibody, V domains shown) VH: EVQLVESGGDLVQPGRSLKLSCTGSGFTFGDYGVTWVRQAPGKGLEWVGFIRTRPWGGTADTAASVKGRFTISRDDSKSLAYLQMNSLKTEDTAVYYCCRDAPPNVEVASMTNWYFDLWGRGTLVTVSS VL: DIQLTQSPSSLSASVGDRVTITCRASQGILNCLAWYQQKPGKVPNLLMYAASTLQSGVPSRFSGSGFGTDFTLTISSLQPEDVATYYCQTYGGVSTFGGGTKVEIR | 3.23
TCN-532 (5262_H18) (antibody, V domains shown) VH: QVQLQESGPGLVKPSETLSLTCTVSGGSVSSETYYWSWIRQPPGKGLEWIGYIYYIGNTDYRPSLKSRVTISLDTSKNQFSLKLSSVTAADTAVYYCARGAYYDSSGYPAFYIWGQGTMVTVSS VL: QSVLTQPPSVSGAPGQRVTISCTGSSSNIGSDYDVHWYKQLPGTAPKLLIFGNSNRPSGVPDRFSGSKSGTSASLAITGLQAEDEADYYCQSYDSSLSGFHVFGSGTKVTVL | 0.06
TCN-533 (5256_A17) (antibody, V domains shown) VH: QVQLVQSGADVKKPGSSVTVSCKASGGSFSNYGINWVRQAPGQGLEWMGGIIPLINAPNYAPKFQGRVTITADMFSNIVSLQLTSLRTDDTAVYYCARRKMTTAIDYWGQGTLVTVSS VL: QPVLSQPPSASASLGASVTLTCTLSSGFDNYQVAWYQQRPGKGPRFVMRVGNGGNVASKGDGIPDRFSVSGSGLNRYLTIKNIQEDDESDYYCGADHGSGNNFVSPYVFGGGTKLTVL | 3.54
TCN-534 (5249_B02) (antibody, V domains shown) VH: QVQLVQSGAEVKKPGSSVKVSCRESGGTFNGYTITWVRQAPGQGLEWMGGIIPMMGTVNYAQKLQGRVTITTDYFTKTAYMDLNNLRSEDTAMYYCVKIRYTGQQLLWGQGTLVTVSS VL: DIQMTQSPSTLSASIGDRVTITCRASQSIASWLAWYQQKPGKAPKLLIYEAVNLESGVPSRFSGSGSGTDFTLTISSLQPDDFATYFCQHYGTISQTFGGGTKVEIK | 3.55
TCN-535 (5246_P19) (antibody, V domains shown) VH: QVQLVQSGSEVKKPGTSVKVSCTASGSVFTNYGISWVRQAPGQGLEWMGGIIPLFGAAKYAQKFQGRVTITADESTKTVYMELSRLTSKDTAIYFCAKAPRVYEYYFDQWGQGTPVTVSS VL: EIVLTQSPGTLSLSPGERATLSCRASQSVSSSQLAWYQQKPGQAPRLIIYGASTRATGIPDRFSGSGSGTDFTLTIGRLEPEDFAVFFCQQYSTSPPTFGQGTKVDFK | 3.43
TCN-536 (5095_N01) (antibody, V domains shown) VH: QVQLQQWGAGLLKPSETLSLTCAVYGGSFSVSGYYWSWIRQPPGRGLEWIGEISHGGSTNYNPSLKSRVTISVDTTKNQFSLRLSSVTAADTAVYYCARGTDPDTEVYCRVGNCAAFDYWGQGSLVTVSS VL: EIILAQSPGTLSLSPGERATLSCRASQFVSTRSLAWYQQRPGQAPRLLIYGASSRATGIPDRFSGSGSGTDFTLTISRLEPEDFAVYYCQHYGYSPRYAFGQGSKVEIK | 3.63
TCN-539 (5056_A08) (antibody, V domains shown) VH: QVQLVESGGGVVQPGRSLRLSCAASEITFITYAMHWVRQAPGKGLEWVALISDDGSNKFYADSVKGRFTISRDNSKNTLYLQMNSLRAEDTAAYYCAREGVYFDSGTYRGYFDYWGQETLVTVSS VL: EIVLTQSPATLSLSPGERATLSCRASQSVSSYLAWYQQKPGQAPRLLIYDASNRATGIPARFSGSGSGTDFTLTISSLEPEDFAVYYCQQRSHWPPITFGQGTRLEIK | 0.06
TCN-540 (5060_F05) (antibody, V domains shown) VH: QVQLVQSGGGVVQPGRSLRLSCAASGFTFSSYAMHWVRQAPGKGLEWVAIISYDGNDQYYTDSVKGRFTISRDSSKVYLQMHRLRPEDTAVYYCAKEFETSGYFHGSFDYWGQGILVTVSS VL: QSALTQPASVSGSPGQSITISCTGTSSDVGGYNYVSWYQQHPGKAPKLLIYEVTNWPSGVSNRFSGSKSGNTASLTISGLQAEDEADYYCSSYAGSSTWVFGGGTRVTVL | 0.07
TCN-542 (5079_A16) (antibody, V domains shown) VH: QVQLQESGPGLVKPSQTLSLTCTVSGGSISSGNYYWNWVRQHPGKGLEWIGYIYYRGSTFYNPSLKSRVTISIDTSKNQFSLRLSSVTAADTAVYYCAKDTRSSLDNYQYGMDVWGQGTTVTVSS VL: QTVVTQEPSLTVSPGGTVTLTCASSTGAVTSSYFPNWFQQKPGQAPRPLIYSTTIRHSWTPARFSGSLLGGKAALTLSGVQPEDEADYYCLLYSGGDPVAFGGGTKLTVL | 3.66
TCN-543 (5081_G23) (antibody, V domains shown) VH: QVHLVQSGAEVRKPGDSVKVSCKTSGYTFSTYPVAWVRQVPGQGLEWMGWISTYNGNTNFAQNFQGRVTLTTDTTTNTAYMEVRSLKFDDTAVYYCARVEGSYRDFWNNQNRFDPWGQGTLVTVSS VL: SYVLTQPPSVSVAPGQTARISCGGSNIGGKSVHWYQQKPGQAPVLVVYDDSGRPSGIPERFSGSNSGDTATLTISRVEAGDEADYFCQVWDNFGGVFGTGTKVTVL | 3.63
TCN-544 (5082_A19) (antibody, V domains shown) VH: QVQLQESGPGLVKPSETLSLTCTVSRGSIGHYFWSWIRQPPGKGLEWIGYISYSGSTKYNPSLRSRVTISVDTSKNQFSLNLNSVTATDTALYYCAREDYDILTGAGPGMEVWGQGTTVTVSS VL: QSMLTQPPSASGTPGQRVTISCSGSSSNIGSNTVNWFKHLPGTAPKLLIYRNDLRPSGVPDRFSGSKSGTSASLAISGLQSEDEADYYCATWDDSLNGFYVFGTGTKVTVL | 0.32
TCN-545 (5082_I15) (antibody, V domains shown) VH: QVQLQQWGAGLLKPSETLSLSCAVFGGSFSDYYWTWIRQPPGKGLEWIGEIKHSGRTNYNPSLESRVTISVDTSKNQFSLKLSSVTAADTAIYYCARGTDPDTEGYCRSGSCSAFDFWGQGTLVTVSS VL: EIVLTQSPGTLSLSPGERATLSCRASHFVNYRSLAWYQQTPGQVPRLLIYGASTRATGIPDRFSGSGSGTDFTLTISRLEPEDFAVYFCQQYGGSPRYTFGQGTRLEIK | 3.32
TCN-546 (5089_L08) (antibody, V domains shown) VH: QVQLQQWGAGLLKPSETLSLTCGVYGGSLSDYYWSWIRQPPGKGLEWIGEINHSGGTNYNPSLKRRVTISVDTSKKQFSLKMNSVTAADTAVYYCARGTDPDTEVYCRAGNCAAFDFWGQGTLVTVSS VL: EIVLTQSPGTLSLSPGERATLSCRASHFVIGRAVAWYQQKPGQAPRLLIYGASSRATGIPDRFSGSGSGTDFTLTISRLETEDFAVFYCQHYGSSPRYAFGQGTKLEIK | 1.95
TCN-547 (5092_F11) (antibody, V domains shown) VH: QVQLQESGPGLVKPSQTLSLTCTVSGDSISSVDHYWSWIRQHPVKGLEWIGFMYYSASTYYNPSLKSRVTISTDTSKNQFSLRLSSVTAADTAVYYCARGTCAGDCSLHYYYYGLDVWGQGRTVTVSS VL: DIQMTQSPSSLSASVGDRVTITCRASQSISSYLNWYQHKPGKAPKVLMYAVSILQSGVPSRFSGSGSGADFTLTISSLQPEDFATYYCQQSYSSPLTFGGGTKVEIK | 0.06
TCN-548 (5092_P01) (antibody, V domains shown) VH: QVQLQESGPGLVKPSETLSLTCTVSSGPMSDYYWSWIRQPPGKGLEWIGHVSVSHGGRTKSNPSVMSRVTISVETSKNQFSLKLTSVTAADTAVYYCARLNYYDRSGYHSPDGPSNNWFDPWGQGTLVTVSS VL: not shown | 0.09
